Data: the nanobody polyreactivity screen of Harvey et al. (2022)

Assay: yeast display, Sf9 membrane polyspecificity reagent, FACS + sequencing; frameworks hold sequencing errors
How it was run: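 Using colony PCR, genes from sorted yeast display clones were amplified, then sequenced on MiSeq at 2 × 250 and filtered by CDR length. The clones had been stained with 10% biotinylated, detergent-solubilized Sf9 membrane reagent for 1 hour at 4 °C and sorted by FACS into low and high (top ~1%) gates on anti-HA and streptavidin fluorescence. Polyreactivity labels come from the gate of origin.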
With “QVQHVESGGGLVQAGGSLRLSCDASGSTFPYYTMGWYRQAPGKERELVAAITWRGGRTYYADSVKGRFTISRDNAKNTVYLQMNSLKPEDTAVYYCATGYSYRGYSALSGYDYWGQGTQVTVSS” the “polyreactivity (PSR sort gate)” value was “high polyreactivity”. For “QVQRVESGGGLVQAGGSLRLSCAASGNNVMGWYRQAPGKERELVAAISWSGTSTYADSVKGRFTISRDNAKNTVYIQMNSLKPEDTAVYYCAAEQQGRKYRASRRYDYWGQGTQVTVSS”, the “polyreactivity (PSR sort gate)” value was “low polyreactivity”. With “QVQLVESGGVLVQAGGSLRLSCAASRSTFTSYAMGWSRQAPGKERELVADISFSGGSTYYADSVKGRFTISRDIAKNSVYSQMNRLTPEDTAVYSCAARIYKRYYWGQGTQVTVSS” the “polyreactivity (PSR sort gate)” value was “high polyreactivity”. With “QVQLVESGGGLVQAGGSLRLSCAASGITFWYNAMGWYRQAPGKERELVAAITRTGSTNYADSVKGRFTISRDNAKNTVYLQMNSLKPEDTAVYYCAAYLGWPWGYYSWGQGTQVTVSS” the “polyreactivity (PSR sort gate)” value was “high polyreactivity”. For “QVQLVESGGGLVQAGGSLRLSCAASGSIFSRYAMGWYRQAPGKERELVAAITSSGTSTYYADSVKGRFTISRDNAKNTVYLQMNSLKPEDTAVYYCAAAFRQRTSRFDYWGQGSQVTVSS”, the “polyreactivity (PSR sort gate)” value was “high polyreactivity”. In the case of “QVQLVESGGGLVQAGGSLRLICAASGSIFGYNAMGWYRQAPGKERELVAVINASGASTYYADSVKGRFTISRDNAKNTVYLQMNSLKPEDTAVYYCAKDPFPFPGGDYWGHGTQVTVSS”, the “polyreactivity (PSR sort gate)” value is reported as “low polyreactivity”. With “QVQLVESGGGLVQAGGSLRLSCAASGSTSWYNAMGWYRQAPGKESELVAAISKSGTSTHYADSVKGRFTISRDNAKNTVYIQMNSRKPEDTAVYYCNRVRYALRRFYGTAVGYWGQGTQVTVSS” the “polyreactivity (PSR sort gate)” value was “low polyreactivity”. For “QVQLVESGGGLVQAGGSLRLSCAASGIIFYYYAMGWYRQAPGKERELVAAINWTGGDTYYADSVKGRFTISRDNAKNTVYLQMNSLKPEDTAVYYCNADSFYSYIYDYWGQGTQVTVSS”, the “polyreactivity (PSR sort gate)” value was “low polyreactivity”. For “QVQLVESGGGLVHAGGSLRLSCAASGSIFNYYAMGWYRQAPGKERELVAAISYGTGSTYYADSVKWRFTISRDNAKNTDYLQMNSLKPEDTAVYYCAADTRYGYGYWGQGTQVTVSS”, the “polyreactivity (PSR sort gate)” value was “high polyreactivity”. In the case of “QVQLVESGGGLVQAGGSLRLSCAASGSTFVGNAMGWYRQAPGKERELVAAITGGGGSTYYADSVKGRFTISRDNAKNTVYLQMNSLKPEDTAVYSCARDRTDYYVWYVRYYYWGQGTQVTVSS”, the “polyreactivity (PSR sort gate)” value is reported as “low polyreactivity”. In the case of “QVQLVESGGGLVQAGGSLRLSCAASGRTFTPYTMGWYRQAPGKEREFVAAITFRGGSTYYADSVKGRFTLSRDNAKNTVYLQMNSLKPEDTAVYYCNARGHGGWGTSMYYWGQGTQVTVSS”, the “polyreactivity (PSR sort gate)” value is reported as “high polyreactivity”. For “QVHLVESGGGLVQARGSLRLSCAASGSTIGYNTMVWYRQAPGKERELVAAITSGGRTYYADSVKGRFTISRDYAKNTVYLQMNSLKPEDSAVYYCAAYYWWGYPENEYWGQGTQVTVSS”, the “polyreactivity (PSR sort gate)” value was “high polyreactivity”. In the case of “QVQLVESGGGLVQAGGSLRLSCAASGRIFTGYAMGWYRQAPGKERELVAAISRGGSTNYADSVKGRFTISRDNAMNTVYLQMNSLKAEDTSVYYCACGVHWDRGDYWGQGAQVTVSS”, the “polyreactivity (PSR sort gate)” value is reported as “low polyreactivity”. With “QVQLVESGGGLVQAGGSLRLSCAASGSTFGFNAMGWYRQAPGKERELVAAITFSGGTTYYADSVKGRFTISRDNAKNTVYLQMNSLKPEDTAVYYCNADVKRDRVWGGDYWGQGTQVTVSS” the “polyreactivity (PSR sort gate)” value was “low polyreactivity”. With “QVQLVESGGGLVQAGGSLRLSCAASGRIFFTNAMGWYRQAPGKERELVAAISKSGARTYYADSVKGRFTISRDNAKNTVYLQMNSLKPEDTAVYYCAADVSVSGYGYWGQGTQVTVSS” the “polyreactivity (PSR sort gate)” value was “high polyreactivity”. With “QVQLEESGGGLVQAGGSLRLSCAASGYTFSHYAIGWYRQAPGKERELVAGITWSGGSTYYADSVKGRFTISRDYAKNTVYLQMNSLKPEDTSVYYCAAKYYWYYSYSGIPLFDYWGQGTQVTVSS” the “polyreactivity (PSR sort gate)” value was “low polyreactivity”. For “QVQLVESGGGLVQAGGSLRLSCAASGYIFGRNAMGWYRQAPGKEREFFAAISSSGSSTYYADSVKGRFTISRDKAKNTVYLQMNSLKPEDTAVYYCNADRLRSTHDYWGQGTQVTVSS”, the “polyreactivity (PSR sort gate)” value was “high polyreactivity”. In the case of “QVQLVESGGGLVQAGGSLRLSCAASGSIFRRNAMGWYRQAPGKERELVAAISSNGGSTYYADSVKGRFTISRDNAKNTVYLQMNSLKQEDTAVYYFNALGRVRYSPRYGYDYWGLGTQVTVSS”, the “polyreactivity (PSR sort gate)” value is reported as “high polyreactivity”. For “QVQLVESGGGLVQAGGSLRLSCAASGRTFNSNAMGCYRQAPGKERELVARISRGASTYYADSVKGRFTISRDNAKNTVYLQMNSLKPEDTAVYYCAKRRRSAAPKYDYWGQGTQVTVSS”, the “polyreactivity (PSR sort gate)” value was “high polyreactivity”. In the case of “QVQLVESGGGLVQAGGSLRLSCAASGNIFYRYAMGWYRQAPGKERELVAAISGNSGNTYYADSVKGRFTISRDNAKNSVYLQMNSLKPEDTAVYYCAARPYYSYAGSGGYWGQGTQVTLSS”, the “polyreactivity (PSR sort gate)” value is reported as “high polyreactivity”. In the case of “QVQLVESGGGLVQAGGSLRLTCAASGGTIFPNAMGWYRQAPGKEMELVATITSSDTTNYADSVKGRFTISRDNAMNTVYLQMNSLKTEDTAVYYCDASFKLRYWDYYYWGQGTQVTVSS”, the “polyreactivity (PSR sort gate)” value is reported as “low polyreactivity”. With “QVQLVESGGGLVQAGGSLRLSCAASGRTFAGYAMGWYRQAPGKERELVATISRNGGSTYYADSVKGRFTISRDNAKNTVYLQMNSLKPEDTAVYYCAADRRGVVRFSRYRGIYDYWGQGTQVTVSS” the “polyreactivity (PSR sort gate)” value was “high polyreactivity”. In the case of “QVQLVESGGGLVQAGGSLRLSCAASGYTFTQNAMGWYRQAPGQERELVASLTSGGSTDYADSVKGRFTISRDNAKNTVYLQMNSVKPEDTAVYYCAAGTATDVASIGATKDYDYWGQVTQVTVSS”, the “polyreactivity (PSR sort gate)” value is reported as “low polyreactivity”. For “QVQLVESGGGLVQAGCSLRLSCAASGRIIDGYAMGWYRQAPGKEREFVAAITWIGGRTYYADSVKGRFTISRDNAKITVYLHMNSLKPEDTAVYYCAVVQSRYRGRFDYWGQGTQVTVTS”, the “polyreactivity (PSR sort gate)” value was “high polyreactivity”. In the case of “QVQLVESGGGLVQAGGSLRLSCAASGSSFDDYTMVWYRQAPGKERELVADSTESGGTTYADSVKGRFTISRDNAKNTVYLQMYSLKPVDTAVYYCNADIYISPLVQVSKGYDYWGQGTQVTVSS”, the “polyreactivity (PSR sort gate)” value is reported as “low polyreactivity”. For “QVQLVESGGGLVQAGGSLRLSCAASGRTFANNAMGWYRQAPGKERELVAAISFSTVSTYYADSVKGRFTISRDNAKYTVYLQMNSLKPEDTAVYYCAARRLGYYRKVKELVYWGQGTQVTVSS”, the “polyreactivity (PSR sort gate)” value was “high polyreactivity”. With “QVQLVESGGGLVQAGGSLRLSCASSGITFGYYAMGWYRQAPGKESELGAARSGSGGSTYYADSVKGRFTISRDNAKNTVSLQMNSLKPEDTAVYDCAAEGPSNTLYWFSWEDYWGQGTQVTVSS” the “polyreactivity (PSR sort gate)” value was “high polyreactivity”. For “QVQLVESGGLLVQAGGSLRLRGAASGSTIPRNAMGWYRQAPGKERELVASITSDGGSTYYADSVKGRFTISRDNAQITVYLQMNSLNPEDTAVYYFNAYTRYGLFAYDYWGQGTQVTVSS”, the “polyreactivity (PSR sort gate)” value was “high polyreactivity”. With “QVQLVESGGGLVQAGGSLRLSCAASGSILWHNAKGWYRQAPGKEREFVAAISARGTRTYYADSVKGRFTISRDNAKNSVYLQMNSLKPEDTAVYYCAARYWDDRARAEDYWGQGTQVTVSS” the “polyreactivity (PSR sort gate)” value was “high polyreactivity”. In the case of “KVQLVESGGGLVQAGGSLRLSCAASGRIFKYYAMGWYRQAPGKEMELVARISRSSGNTYYADSVKGRFTISRDNAKKTVYLQMNSLIPEDTAVYYCATVPHYNGFNYWGQGTQVTVSS”, the “polyreactivity (PSR sort gate)” value is reported as “high polyreactivity”. With “QVQLVESGGGLVQAGGSLRISCAASGIIFAYAMGWYRQAPGKERELVAAISGRDGSTYYADSVKGRFTISRDNAKNTVYLQMISLKQEDTAVYFCAAGDYYLQDNYWGQGTQVTVSS” the “polyreactivity (PSR sort gate)” value was “low polyreactivity”. In the case of “QVQLQESGGGLVQAGGTLRLSCAVSGTIFFPLDMGWYRQAPGREREYVAAIAEGTSTYYADSVKGRFTISRDNAKNTVFPQMYSLKPEDTAVYYCAAYRSTPQQFHYWGQGTQVTVSS”, the “polyreactivity (PSR sort gate)” value is reported as “high polyreactivity”. With “QVQLVESGGGLVQAGGSLRLSCAASGRIITYYAMGWYRQAPGKERELVAAITASGSRTYYADSVKGRFTISRDNAKNTVYLQMNSLKPEDTAVYYCAALSRLSPLSGSYYWGQGTQVTVSS” the “polyreactivity (PSR sort gate)” value was “high polyreactivity”. With “QVQLQESGGGLVQAGGSLRLSCAASGSISRLDYMGWYRQASGKERELVAAIDNGRTTYYAESVKGRLTISRDNAKYTVYLQMNSLKPEDTAVYCCAAVRGRGGTHAYWGQGTQVTVSG” the “polyreactivity (PSR sort gate)” value was “low polyreactivity”. For “QVQLVESGGGLVQAGGSLRLSCAASGRTFRAYVMGWYRQAPGKERELVAAISGRGGSTYYADSVKGRFTSSRDNAKNTVYLQMNSLKPEDTAVYYCNAVQLSQRPHDYWGQGTQVTVSS”, the “polyreactivity (PSR sort gate)” value was “high polyreactivity”. For “QVQLVESGGGLVQAGGSLRLSCAASGGIFQENAMGWYRQAPGKERELVATITRSTGSTYYADSVKGRFTISRDNAKNTVYLQMNSLKPEDTAVYYCAARRRSQYYRYAYKYDYWGQGTQVTVSS”, the “polyreactivity (PSR sort gate)” value was “high polyreactivity”. In the case of “QVQLQDSGGGLVQAGGSLRQNCETSGTIFVLWYMGWYRQAPGKERELVATINDGANTYYADSVKGRFTINRDNANSTVYMKMNSLIPEDTAVYYCAVYAIIVWGLGYWGQGTQVTVSS”, the “polyreactivity (PSR sort gate)” value is reported as “high polyreactivity”. For “QVQLVESGGGLVQAGGSLSLSCAASGRTFSYYAMGWYRQAPGKERELVAAISRSGSITYYADSVKGRFTISRDNAKNTIYLQMNSLKPEDTAVYYCNADSSRRRYSSDYWGQGTQVTVSS”, the “polyreactivity (PSR sort gate)” value was “high polyreactivity”. For “QVQLQESGGGLVKAGGSLRLSCAASGNISPSDAMGWYRQAPGEERDLVASNAYSAITYYADGVKGRYTISRDNAKNTVYLQMNSLKPEDTEVYYCAVYQFTYPVFPAYWGQGTQVTVSS”, the “polyreactivity (PSR sort gate)” value was “low polyreactivity”. In the case of “QVQLVESGGGLVEAGGSLRLTCAASGIIFYQYAMGWYRQAPGKERELVAAISSRGGSTYYADSVKGRFTISRDNAKNTVYLQMNSLKPEDTAVYYCAAGSTRSTDGYWGQGTQVTVSS”, the “polyreactivity (PSR sort gate)” value is reported as “high polyreactivity”. For “QVQLVESGGGLVQAGGSLRLSCAASGRIFWWYAMGWYRQAPGKERELVASISSRGTSTYYADSVKGRFTISRDNAKHTVYLQMNSLKPEDTAFYYCAARRPGRTSQDRYKYDYWGQGTQVTVSS”, the “polyreactivity (PSR sort gate)” value was “high polyreactivity”. For “QVQLVESGGGLVQAGGSLRLSCAASGSTFSIYARGWYRPAPGKERELVAAIRWSGGRTYYADSVKGRFTISRDNAKNTVYLQMNSLKPEDTAVYYCAAESTGSGYDYWGQGTQVTVSS”, the “polyreactivity (PSR sort gate)” value was “high polyreactivity”. With “QVQLVESGGGLVQAGGSLRLSCAASGITFGDYAMGWDRQAPGKERELVAAISTSGVRTYYADSVKGRFTISRDNAKNTVYLQMNSLKPEDTAVYYCNARDYSGFQTGASAAFDYWGQGTQVTVSS” the “polyreactivity (PSR sort gate)” value was “low polyreactivity”.
